Test results: paper PMC5923107 (Antimicrobial Agents and Chemotherapy, 2018)

B1: TRL848 (antibody, V domains shown)
VH: QVQLLESGGDVVQPGTSLRLSCAASGFSLWTSGMHWVRQAPGKGLEWVAVMSYDETKKYYADSVRGRFSISRDNSRNTLYLQMNSLRVEDTAVYFCAKPRLDYLDYFHAADSWGQGTLVSVSS
VL: DIVLTQPPSVSVAPGQTATITCGGNYIGSKSVNWYQQRPGHAPVLVVYDDSDRPSGIPDRFSGSNSRSTATTATLTISRVEAGDEADYYCQVWETSEDLWVFGGGTKLTVL
notes: also called MAb TRL848
B2: TRL845 (antibody, V domains shown)
VH: QVQLVQSGGDLVQPGGSLRLSCAASGFTFSRYSMNWVRQAPGMGLEWVAYISDTSRTIYYADSVKGRFTISRDNAKNSLYLQMKSLRDEDTAVYYCARDPDTPFVRAFDSWGQGTLVTVSS
VL: DIVLTQSPSFLSASVGDRVTITCRASQLISSYFAWYQQKPGKPPKLLIYAASTLQSGVPSRFSGSGSGTQFSLTISSLQPEDFATYYCQQLNSYPPITFGQGTRLEIK
notes: also called MAb TRL845
B3: TRL847 (antibody, V domains shown)
VH: QVQLVESGGGLVQPGGSLRLSCVASGFTFSRFSMNWVRQAPGMGLEWVSYISDTGRTIYYADSVKGRFTISRDNDKNTLYLQMKSLRDEDSAFYYCARDPDTPFVRAFDSWGQGVLVTVSS
VL: DIVMTQSPSFLSASVGDRVTITCRTSQVISSYLAWYQQRPGKAPKLLIYAASTLQSGVPSRFSGSGSGTRFSLTISNLQPEDFATYFCQQLTTYPPITFGQGTRLEIK
notes: also called MAb TRL847
B4: TRL849 (antibody, V domains shown)
VH: QVQLVESGPGLVKPSQTLSLTCTVSGGSISNGGYHWSWIRQHPGKGLEWIGNIYYRGSTFYDPSLKSRVTISVDTSKSQFSLKLTSVTAADTAVYYCARMPLANYDLLTGLYIGAFDLWGQGTMVTVSS
VL: DIVLTQSPATLSVSPGERATLSCRASQSVNRNLAWFQQIPGQAPRLLIFDASTRAADIPARFSGGGSGAEFTLTVSSLQPEDFAVYYCQQYDKWPPGFGQGTKVEIK
notes: also called MAb TRL849
B5: TRL854 (antibody, V domains shown)
VH: QVQLVESGAEVKKPGASVRVSCKGSGYTFTAYHMHWVRQAPGQGFEWVGWINPNSGATYYTSTFEGRVTMTRDTSITTAYMELSSLRSDDTAVYYCATDIVVERDASLGGFNSYGMDVWGQGTTVTVSS
VL: DIEMTQSPLSLPVTPGEPASISCRSSQSLLHSNGYNHLAWYLQKPGRSPHLLIYLASTRASGVPDRFSGSGSGTDFTLKISRVEAEDVGIYYCMQSLQTSITFGQGTRLEIK
notes: also called MAb TRL854

What was measured:
Settings in all cases: both partners purified
[1] = target: T1, biotinylated HA antigen of B/Florida/04/2006 (Influenza B virus B/Florida/4/2006, UniProt E1TVD5, strain); experiment: BLI
T1 construct: also called HA of B/Florida/04/2006

[2] = target: T2, hemagglutinin (HA) of influenza A virus A/California/07/2009 (H1N1, group 1) (Influenza A virus A/California/07/2009 …, UniProt C3W5X2, strain); experiment: ELISA
T2 construct: also called A/California/07/2009 HA

[3] = target: T3, hemagglutinin (HA) of influenza A virus A/Sydney/05/1997 (H3N2, group 2) (Influenza A virus A/Sydney/5/1997 (H3N2), UniProt C3PR59, strain); experiment: ELISA
T3 construct: also called A/Sydney/05/1997 HA

Binder	binding result [1]	binding result [2]	binding result [3]	Kd [1] [nM]
B1	binds	no binding (tested: 5 μg/ml (30 nM))	no binding (tested: 5 μg/ml (30 nM))	
B2		no binding (tested: 5 μg/ml (30 nM))	no binding (tested: 5 μg/ml (30 nM))	≤ 0.2
B3	binds	no binding (tested: 5 μg/ml (30 nM))	no binding (tested: 5 μg/ml (30 nM))	
B4		no binding (tested: 5 μg/ml (30 nM))	no binding (tested: 5 μg/ml (30 nM))	≤ 0.2
B5	binds	no binding (tested: 5 μg/ml (30 nM))	no binding (tested: 5 μg/ml (30 nM))	
